Measurements from the supplement of paper PMC7877785.
± gives the uncertainty stated by the source.

Test: self-splicing fitness, log relative to wild type (ln ratio); higher = more splicing; Tetrahymena group I intron in knt gene, E. coli kanamycin selection, DiMSum; sequences stand for … in CUCUCU…GGAGGGAAAAGUUAUCAGGCAUGCACCUGGUAGCUAGUCUUUAAACCAAUAGAUUGCAUCGGUUUAAAAGGCAAGACCGUCAAAUUGCGGGAAAGGGGUCAACAGCCGUUCAGUACCAAGUCUCAGGGGAAACUUUGAGAUGGCCUUGCAAAGGGUAUGGUAAUAAGCUGACGGACAUGGUCCUAACCACGCAGCCAAGUCCUAAGUCAACAGAUCUUCUGUUGAUAUGGAUGCAGUUCACAGACUAAAUGUCGGUCGGGGAAGAUGUAUUCUUCUCAUAAGAUAUAGUCGGACCUCUCCUUAAUGGGAGCUAGCGGAUGAAGUGAUGCAACACUGGAGCCGCUGGGAACUAAUUUGUAUGCGAAAGUAUAUUGAUUAGUUUUGGAGUACUCGUGGUCG
Summary of the method: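 Colonies from six replicate transformations of E. coli BL21(DE3) were pooled and amplicon-sequenced on an Illumina HiSeq 2500. The library placed an intron with all eight P1ex-region nucleotides randomised inside the knt kanamycin-resistance gene on pET-22b(+), and cells grew overnight at 37°C or 30°C on LB agar with or without 25 μg/mL kanamycin (plus 100 μg/mL carbenicillin, 50 μM IPTG, 0.2% rhamnose). Fitness is the DiMSum error-weighted combination of wild-type-normalised replicate fold changes, kanamycin versus none.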

Row | Sequence | self-splicing fitness (ln) (30 °C) | self-splicing fitness (ln) (37 °C)
1 | CACAAGCAAUAUUACGGAUG | -2.59 ± 0.095 | -0.904 ± 0.087
2 | GUGUAGCAAUAUUACGAAUU | -2.33 ± 0.064 | -1.85 ± 0.097
3 | CACCAGCAAUAUUACGGACU | -2.98 ± 0.11 | -2 ± 0.11
4 | AUAGAGCAAUAUUACGUACC | -3.3 ± 0.16 | -1.3 ± 0.15
5 | CCUAAGCAAUAUUACGGGCC | -3.18 ± 0.27 | -2.12 ± 0.22
6 | CUACAGCAAUAUUACGGAGG | -2.21 ± 0.087 | -1.33 ± 0.11
7 | GCUUAGCAAUAUUACGUUCG | -0.857 ± 0.095 | -0.972 ± 0.11
8 | UCGCAGCAAUAUUACGACGU | -1.46 ± 0.076 | -0.706 ± 0.074
9 | CUUAAGCAAUAUUACGUCUG | -0.605 ± 0.067 | -0.254 ± 0.08
10 | GUCUAGCAAUAUUACGCUGA | -1.21 ± 0.16 | -0.707 ± 0.13
11 | CGUCAGCAAUAUUACGGUUA | -2.25 ± 0.12 | -0.874 ± 0.091
12 | GAGUAGCAAUAUUACGCGUU | -2.44 ± 0.095 | -0.8 ± 0.09
13 | CUCUAGCAAUAUUACGUGAC | -4.2 ± 0.26 | -1.68 ± 0.17
14 | AUAGAGCAAUAUUACGCAGU | -1.73 ± 0.16 | -0.369 ± 0.19
15 | CCCCAGCAAUAUUACGGUAG | -2 ± 0.065 | -1.31 ± 0.097
16 | UAAGAGCAAUAUUACGCAAC | – | -2.19 ± 0.45
17 | UCUUAGCAAUAUUACGGUAC | -3.68 ± 0.41 | -2.51 ± 0.48
18 | ACGAAGCAAUAUUACGCCAG | -2.08 ± 0.19 | -1.72 ± 0.3
19 | GCUUAGCAAUAUUACGUUCC | -0.313 ± 0.19 | -0.542 ± 0.23
20 | GACUAGCAAUAUUACGCUGG | -3.18 ± 0.21 | -2.13 ± 0.25
21 | AGCCAGCAAUAUUACGUUCC | -2.02 ± 0.17 | -2.04 ± 0.28
22 | GGAGAGCAAUAUUACGUCUG | -1.13 ± 0.2 | -0.491 ± 0.25
23 | GCGCAGCAAUAUUACGCUUG | -2.57 ± 0.12 | -1.06 ± 0.12
24 | AUAGAGCAAUAUUACGCAAC | – | -1.78 ± 0.41
25 | UUAUAGCAAUAUUACGCGAC | -2.5 ± 0.19 | -1.98 ± 0.2

Row | Sequence | self-splicing fitness (ln) (30 °C) | self-splicing fitness (ln) (37 °C)
26 | UCCCAGCAAUAUUACGCCGG | -2.84 ± 0.28 | -1.21 ± 0.3
27 | ACCGAGCAAUAUUACGGAGG | -3.01 ± 0.2 | -2.72 ± 0.23
28 | CGCUAGCAAUAUUACGAGUG | -2.91 ± 0.16 | -3.22 ± 0.17
29 | AGGCAGCAAUAUUACGGCCA | -1.07 ± 0.15 | -0.0424 ± 0.21
30 | AGAGAGCAAUAUUACGGUUG | – | -1.45 ± 0.41
31 | AAAAAGCAAUAUUACGCGCC | -0.44 ± 0.095 | -0.59 ± 0.13
32 | CGCAAGCAAUAUUACGGGUA | -1.68 ± 0.086 | -0.81 ± 0.09
33 | UAUGAGCAAUAUUACGAUAU | -3.47 ± 0.26 | -2.02 ± 0.36
34 | ACAGAGCAAUAUUACGCCGG | -2.81 ± 0.25 | -2.4 ± 0.33
35 | UAGUAGCAAUAUUACGAAUC | -2.9 ± 0.48 | –
36 | GGCAAGCAAUAUUACGCGCA | 0.145 ± 0.077 | 0.461 ± 0.11
37 | GAAAAGCAAUAUUACGGCUA | -0.156 ± 0.082 | 0.451 ± 0.082
38 | GGUGAGCAAUAUUACGAUUC | -0.904 ± 0.089 | 0.137 ± 0.11
39 | UGAAAGCAAUAUUACGCGCC | -0.832 ± 0.21 | -0.728 ± 0.23
40 | ACACAGCAAUAUUACGUUGG | -3 ± 0.089 | -1.2 ± 0.081
41 | ACCGAGCAAUAUUACGUUAA | -3 ± 0.13 | -2.7 ± 0.14
42 | UCUCAGCAAUAUUACGUCGU | -2.11 ± 0.091 | -1.91 ± 0.11
43 | GGACAGCAAUAUUACGAUCA | -0.381 ± 0.087 | 0.0425 ± 0.11
44 | ACUUAGCAAUAUUACGAUAA | -2.81 ± 0.27 | -0.457 ± 0.3
45 | CCUAAGCAAUAUUACGUCUU | -3.47 ± 0.18 | -2.42 ± 0.22
46 | UUCUAGCAAUAUUACGAAUG | -2.45 ± 0.4 | –
47 | AUUAAGCAAUAUUACGAGUG | -2.42 ± 0.1 | -2.37 ± 0.14
48 | GGGUAGCAAUAUUACGGCAA | -0.369 ± 0.24 | -0.33 ± 0.28
49 | CUAAAGCAAUAUUACGUCGG | -0.261 ± 0.061 | -0.189 ± 0.078
50 | UCUCAGCAAUAUUACGAGCU | -1.48 ± 0.086 | -0.552 ± 0.12

Row | Sequence | self-splicing fitness (ln) (30 °C) | self-splicing fitness (ln) (37 °C)
51 | AUCCAGCAAUAUUACGAAAA | -1.79 ± 0.12 | -1.02 ± 0.12
52 | AGGCAGCAAUAUUACGACGC | -0.638 ± 0.12 | -0.663 ± 0.14
53 | UUACAGCAAUAUUACGUGGC | -2.87 ± 0.26 | -2.92 ± 0.34
54 | UGAUAGCAAUAUUACGUGAU | -3.09 ± 0.11 | -2.43 ± 0.17
55 | AUCUAGCAAUAUUACGACAU | 0.0957 ± 0.013 | 0.273 ± 0.032
56 | CUUGAGCAAUAUUACGAUAC | -3.57 ± 0.42 | –
57 | CGUGAGCAAUAUUACGGUCA | -3.84 ± 0.25 | -2.12 ± 0.16
58 | AGACAGCAAUAUUACGCGAA | -2.45 ± 0.12 | -0.878 ± 0.1
59 | CGUCAGCAAUAUUACGUGAA | -2.11 ± 0.087 | -0.281 ± 0.092
60 | AGUUAGCAAUAUUACGAGCU | -1.97 ± 0.15 | -0.796 ± 0.17
61 | UCUUAGCAAUAUUACGUAGA | -1.15 ± 0.21 | -0.474 ± 0.18
62 | AUCCAGCAAUAUUACGUCAC | -2.35 ± 0.19 | -2.44 ± 0.22
63 | GAAUAGCAAUAUUACGGACU | -0.83 ± 0.07 | -0.397 ± 0.087
64 | GCAAAGCAAUAUUACGAACG | -1.46 ± 0.077 | -0.561 ± 0.11
65 | UGGCAGCAAUAUUACGGUUC | -2.14 ± 0.2 | -0.624 ± 0.19
66 | UCUUAGCAAUAUUACGGUCG | -0.895 ± 0.16 | -1.37 ± 0.33
67 | UUGGAGCAAUAUUACGACGU | -1.85 ± 0.48 | –
68 | GAUUAGCAAUAUUACGUCUG | -2.47 ± 0.23 | -1.19 ± 0.16
69 | GCGCAGCAAUAUUACGCGCG | -3.1 ± 0.32 | –
70 | CAAAAGCAAUAUUACGCCCC | -3.27 ± 0.3 | –
71 | GAUCAGCAAUAUUACGUCAG | -4.35 ± 0.43 | -2.43 ± 0.28
72 | AUCUAGCAAUAUUACGCUUG | -1.85 ± 0.12 | -1.36 ± 0.14
73 | CAACAGCAAUAUUACGCGUG | -4.02 ± 0.22 | -3.31 ± 0.16
74 | GGUAAGCAAUAUUACGUAGG | -2.78 ± 0.19 | -3.5 ± 0.28
75 | GUAUAGCAAUAUUACGGACC | -1.89 ± 0.5 | -2.56 ± 0.3

Row | Sequence | self-splicing fitness (ln) (30 °C) | self-splicing fitness (ln) (37 °C)
76 | GAUGAGCAAUAUUACGGCGC | -0.349 ± 0.17 | 0.649 ± 0.25
77 | GCCAAGCAAUAUUACGCACG | -2.84 ± 0.23 | -1.08 ± 0.16
78 | CAAAAGCAAUAUUACGAUAG | -0.0755 ± 0.065 | 0.3 ± 0.083
79 | CCUUAGCAAUAUUACGGCGU | -3.94 ± 0.33 | -2.78 ± 0.32
80 | CAAUAGCAAUAUUACGCCAU | -3.21 ± 0.34 | -2.43 ± 0.26
81 | CUCAAGCAAUAUUACGGAAU | -3.95 ± 0.26 | -2.67 ± 0.22
82 | CUGCAGCAAUAUUACGACCC | -3.76 ± 0.36 | -1.05 ± 0.48
83 | GGUCAGCAAUAUUACGCCAU | -3.36 ± 0.3 | -0.853 ± 0.17
84 | GCAUAGCAAUAUUACGACGC | -0.867 ± 0.13 | -0.196 ± 0.13
85 | UCUAAGCAAUAUUACGGCUC | – | -1.67 ± 0.35
86 | CACUAGCAAUAUUACGCUUU | -4.28 ± 0.42 | -1.57 ± 0.2
87 | GCCUAGCAAUAUUACGGUUC | -1.02 ± 0.07 | -1.45 ± 0.11
88 | UGCGAGCAAUAUUACGCACU | -1.68 ± 0.27 | -1.66 ± 0.24
89 | GUUUAGCAAUAUUACGUGGA | -2.48 ± 0.21 | -2.89 ± 0.29
90 | GUAAAGCAAUAUUACGGUCC | -1.23 ± 0.21 | -0.634 ± 0.25
91 | UAUGAGCAAUAUUACGACGA | -1.87 ± 0.36 | -1.62 ± 0.34
92 | CUCGAGCAAUAUUACGAAGG | -2.2 ± 0.27 | -1.38 ± 0.41
93 | CUGUAGCAAUAUUACGAUAG | -1.9 ± 0.23 | -1.17 ± 0.15
94 | UGUGAGCAAUAUUACGAUAG | -2.74 ± 0.24 | -0.644 ± 0.2
95 | CGAGAGCAAUAUUACGCGCG | -1.64 ± 0.25 | –
96 | CCAGAGCAAUAUUACGCGGU | -3.94 ± 0.23 | -3.14 ± 0.33
97 | UUAGAGCAAUAUUACGUGCG | -1.28 ± 0.1 | -0.87 ± 0.14
98 | GUCAAGCAAUAUUACGCGAU | -4.38 ± 0.28 | -3.64 ± 0.39
